This note sets out measurements from patent US12552876.

This experiment has as its target HSA-Fuc-GM1 conjugate (human). The experiment is described as follows: SPR (Biacore X), HSA-Fuc-GM1 conjugate amine-coupled to CM5 chip, antibody as analyte, bivalent analyte model. Background: SPR reads the build-up and loss of mass on a sensor chip optically.

Chain of HSA-Fuc-GM1 conjugate (human) (P02768 25-609): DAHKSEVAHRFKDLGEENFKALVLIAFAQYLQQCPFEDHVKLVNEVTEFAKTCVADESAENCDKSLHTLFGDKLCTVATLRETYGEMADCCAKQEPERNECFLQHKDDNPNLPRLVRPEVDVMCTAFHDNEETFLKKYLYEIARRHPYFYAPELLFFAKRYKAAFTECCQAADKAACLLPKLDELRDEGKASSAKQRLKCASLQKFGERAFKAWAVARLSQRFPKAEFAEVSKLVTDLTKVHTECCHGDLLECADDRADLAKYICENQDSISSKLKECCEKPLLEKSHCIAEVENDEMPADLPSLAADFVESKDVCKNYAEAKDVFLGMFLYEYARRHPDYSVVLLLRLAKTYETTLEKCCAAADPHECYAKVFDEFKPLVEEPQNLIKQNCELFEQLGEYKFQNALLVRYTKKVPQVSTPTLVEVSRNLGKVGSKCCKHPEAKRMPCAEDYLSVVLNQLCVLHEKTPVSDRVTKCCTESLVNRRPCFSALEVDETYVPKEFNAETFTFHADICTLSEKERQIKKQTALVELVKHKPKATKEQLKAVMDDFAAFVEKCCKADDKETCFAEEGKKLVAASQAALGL

B1: mAb FL134.33 (antibody, V domains shown)
VH: AVQLQESGPDLVKPSQSLSLTCTVTGYSITSGYSWHWIRQFPGNKLEWVGYIHYRGNTNYNPSLKSRVSITRDTYKNQFFLQLNSLTTEDTATYYCAQEPVRNYAMDFWGQGTSVTVSS
VL: DIVMTQSPDTLSVTPGDRVSLSCRASQSISDDLHWYQQKSHESPRLLIKYVSQSISGIPSRFSGSGSRSDFTLTINSVEPEDVGLYYCQNGHGFPPTFGGGTKLEIK
Broadly, the koff is the rate constant with which the complex falls apart. High values mean fast dissociation, low ones slow dissociation. As usually defined, the kon is a measure of how fast the partners come together. Lower therefore signals slow association. For B1, the Kd amounted to 58 µM, the koff worked out at 0.117 s⁻¹ and the kon was 2010 M⁻¹ s⁻¹.
